Assay results from US20240010735A1 (EISAI R AND D MANAGEMENT, published 2024).

Tests used:
Experiment in all cases: ELISA: SEAP-His proteins (1 nM) captured on anti-6-His antibody, antibody A 10 µg/mL with human IgG 100 µg/mL, HRP anti-mouse IgG, OD450 as % of human EphA4-SEAP-His
[1] = target: T1, human EphA5 extracellular region-SEAP-His protein (human, UniProt P54756 25-573)
T1 construct: extracellular domain; also called Eph receptor extracellular region-SEAP-His protein; not shown: secretory alkaline phosphatase (SEAP); histidine tag
T1 sequence (P54756 25-573): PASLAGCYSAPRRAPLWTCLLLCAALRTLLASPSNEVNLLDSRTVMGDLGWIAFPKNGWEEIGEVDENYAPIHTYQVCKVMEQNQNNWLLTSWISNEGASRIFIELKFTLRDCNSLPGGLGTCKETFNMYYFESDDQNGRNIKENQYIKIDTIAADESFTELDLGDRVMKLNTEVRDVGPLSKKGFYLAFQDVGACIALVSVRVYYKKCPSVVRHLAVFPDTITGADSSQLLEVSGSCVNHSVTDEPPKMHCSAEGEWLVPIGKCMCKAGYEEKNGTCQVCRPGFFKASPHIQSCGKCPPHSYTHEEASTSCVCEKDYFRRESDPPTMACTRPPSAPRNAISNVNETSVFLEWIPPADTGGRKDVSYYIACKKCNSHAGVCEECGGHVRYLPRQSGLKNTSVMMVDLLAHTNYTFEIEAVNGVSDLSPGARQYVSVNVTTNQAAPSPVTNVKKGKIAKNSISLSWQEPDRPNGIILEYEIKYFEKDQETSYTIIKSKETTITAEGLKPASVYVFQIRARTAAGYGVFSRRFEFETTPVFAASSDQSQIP
Method: (§1) Rabbit anti-6-His antibodies (Bethel Laboratories) were coated onto the wells of a 96-well plate (Nunc). After incubating at 4° C. overnight, the wells were blocked at room temperature for 1 hour by 1% Block Ace (DS Pharma Biomedical). After washing 3 times with 0.05% Tween 20/PBS (Thermo […]), each Eph receptor of human extracellular region-SEAP-His protein (final concentration 1 nM) was seeded into each well, and incubated at room temperature for 1 hour. After washing 3 times, human IgG solution (100 μg/mL, Mitsubishi Pharma Corporation) and antibody A (10 μg/mL) were supplemented to the wells, and incubated at room temperature for 1 hour. Horseradish peroxidase-labeled donkey anti-mouse IgG antibody (Jackson ImmunoResearch Laboratories) was added, and incubated at room, temperature for 1 hour. After washing 3 times, TMBZ (3,3′,5,5′-tetramethylbenzidine, Sigma) solution was added to the wells, and upon confirmation of modest coloring, an equal amount of quenching solution (1 N H₂SO₄, Wako Pure Chemicals) was added to the wells, and absorbance at 450 nm was read by a microplate reader (PerkinElmer).

[2] = target: T2, human EphA8 extracellular region-SEAP-His protein (human, UniProt P29322 28-542)
T2 construct: extracellular domain; also called Eph receptor extracellular region-SEAP-His protein; not shown: secretory alkaline phosphatase (SEAP); histidine tag
T2 sequence (looked up): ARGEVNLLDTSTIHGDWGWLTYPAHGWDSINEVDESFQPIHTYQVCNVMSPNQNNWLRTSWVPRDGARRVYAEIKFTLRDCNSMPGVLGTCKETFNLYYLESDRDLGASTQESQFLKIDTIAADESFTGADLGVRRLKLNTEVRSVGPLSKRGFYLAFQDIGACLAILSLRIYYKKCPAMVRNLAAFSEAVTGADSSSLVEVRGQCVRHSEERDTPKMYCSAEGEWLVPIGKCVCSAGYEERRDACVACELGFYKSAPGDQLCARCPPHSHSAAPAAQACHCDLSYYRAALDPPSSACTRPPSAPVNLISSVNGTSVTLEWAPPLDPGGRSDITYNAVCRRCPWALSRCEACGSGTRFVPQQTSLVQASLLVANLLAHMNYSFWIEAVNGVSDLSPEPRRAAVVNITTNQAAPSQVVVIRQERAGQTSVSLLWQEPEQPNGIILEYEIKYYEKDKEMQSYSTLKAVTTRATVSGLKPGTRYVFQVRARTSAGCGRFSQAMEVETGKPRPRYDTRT
Method: as §1

[3] = target: T3, human EphA3 extracellular region-SEAP-His protein (human, UniProt P29320 21-541)
T3 construct: extracellular domain; also called Eph receptor extracellular region-SEAP-His protein; not shown: secretory alkaline phosphatase (SEAP); histidine tag
T3 sequence (looked up): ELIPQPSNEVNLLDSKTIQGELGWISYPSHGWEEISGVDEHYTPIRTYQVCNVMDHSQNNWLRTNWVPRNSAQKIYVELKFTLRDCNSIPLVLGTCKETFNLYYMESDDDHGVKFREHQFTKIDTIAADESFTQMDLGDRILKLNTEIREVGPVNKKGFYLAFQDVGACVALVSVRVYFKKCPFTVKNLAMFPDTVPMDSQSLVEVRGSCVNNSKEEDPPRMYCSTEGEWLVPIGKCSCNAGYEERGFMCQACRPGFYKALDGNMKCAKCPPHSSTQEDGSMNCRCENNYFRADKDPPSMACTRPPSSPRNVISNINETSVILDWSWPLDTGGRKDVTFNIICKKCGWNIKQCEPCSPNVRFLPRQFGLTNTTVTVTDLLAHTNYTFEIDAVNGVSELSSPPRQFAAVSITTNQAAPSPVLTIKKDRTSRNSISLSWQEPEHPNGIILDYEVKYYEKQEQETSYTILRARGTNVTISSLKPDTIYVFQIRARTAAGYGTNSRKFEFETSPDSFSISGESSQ
Method: as §1

[4] = target: T4, human EphB6 extracellular region-SEAP-His protein (human, UniProt O15197 32-594)
T4 construct: extracellular domain; also called Eph receptor extracellular region-SEAP-His protein; not shown: secretory alkaline phosphatase (SEAP); histidine tag
T4 sequence (looked up): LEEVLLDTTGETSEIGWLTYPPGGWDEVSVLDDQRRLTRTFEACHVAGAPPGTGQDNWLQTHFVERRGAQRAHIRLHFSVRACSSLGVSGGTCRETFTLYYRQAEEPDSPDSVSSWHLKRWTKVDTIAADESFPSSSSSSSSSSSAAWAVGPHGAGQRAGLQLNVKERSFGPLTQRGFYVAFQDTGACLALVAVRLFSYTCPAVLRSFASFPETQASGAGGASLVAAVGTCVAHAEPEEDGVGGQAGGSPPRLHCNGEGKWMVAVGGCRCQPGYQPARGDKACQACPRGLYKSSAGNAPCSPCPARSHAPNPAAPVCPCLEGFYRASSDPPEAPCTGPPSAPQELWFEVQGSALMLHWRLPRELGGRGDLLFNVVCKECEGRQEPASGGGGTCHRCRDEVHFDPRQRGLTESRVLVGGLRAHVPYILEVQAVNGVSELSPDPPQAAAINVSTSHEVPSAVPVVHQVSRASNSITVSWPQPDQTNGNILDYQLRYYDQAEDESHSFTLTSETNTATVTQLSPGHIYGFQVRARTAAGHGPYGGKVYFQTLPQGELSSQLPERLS
Method: as §1

Measured: binding result

B1: mouse anti-EphA4 monoclonal antibody (antibody A) (antibody, mouse IgG1, kappa, V domains shown)
VH: QVQLKQSGPSLVQPSQSLSITCTVSGFSLTRYGVHWVRQSPGKGLEWLGVIWRGGSTDYNAAFMSRLSITKDNSKSQVFFKMNSLQADDTAIYYCAKESLFGVYYDYGYYSMDYWGQGTSVTVSS
VL: DIQMTQSPSSLSASLGERVSLTCRASQEISGYLSWLQQKPDGTIKRLIYAASTLDSGVPKRFSGSRSGSDYSLTISSLESEDFADYYCLQYASYPLTFGAGTKLELKR
notes: purified from hybridoma supernatant
no binding (tested: 10 µg/mL): [1] | [2] | [3] | [4]
